In the RNAGym collection of RNA variant scans (doi:10.7554/elife.80360):

B1: HDV Ribozyme (parent)
chain: GGCCGGCAUGGUCCCAGCCUCCUCGCUGGCGCCGGCUGGGCAACAUUCCGAGGGGACCGUCCCCUCGGUAAUGGCGAAUGGGACCCA

Variants of: B1
Assay: self-cleavage, relative activity (ratio to wild type); higher = more cleavage; co-transcriptional

Row | Variant | self-cleavage
1 | GGCCGGCAUGGUCCCAGCCUCCUCGCUGGCGCCGGCUGGGCAACAUUCCGAGGGGACCGUCUCCUCGGUAAUGGCGAAUGGGACCGA | 0.831
2 | GGCCGGCAUGGUCCCAGCCUCCUCGCUGGCGCCGGCUGGGCAACAUUCCGAGGGGACCGUCCCCUCGGUUAUGGCGAAUGGUACCCA | 0.567
3 | GGCCGGCAUGGUCCCAGACUCCUCGCUGGCGCCGGCUGGGCAACACUCCGAGGGGACCGUCCCCUCGGUAAUGGCGAAUGGGACCCA | 0.095
4 | GGCCGGCAUGGUCCCAGCCUCCUCGCUGGCGCCGGCUGGGCAACAUUCCGAGGGGACAGUCCCCUAGGUAAUGGCGAAUGGGACCCA | 0.959
5 | AGCCGGCAUGGUCCCAGCUUCCUCGCUGGCGCCGGCUGGGCAACAUUCCGAGGGGACCGUCCCCUCGGUAAUGGCGAAUGGGACCCA | 0.101
6 | GGCCGGCAUGGUCCCAGCCUCCUCGCUUGCGCCGGCUGGGCAACAUUCCGAGGGGACCGUCCCCUCGGUAAUGGCGAAUCGGACCCA | 0.0639
7 | GGCCGGCAUCGUCCCAGCCUCCUCGCUGGCGCCGGCUGGGCAACAUUCCGAGGGGACCGUCCCCUCGGUAGUGGCGAAUGGGACCCA | 0.906
8 | GGCCGGCAUGGUCCCAUCCUCCUCGCUGCCGCCGGCUGGGCAACAUUCCGAGGGGACCGUCCCCUCGGUAAUGGCGAAUGGGACCCA | 0.0773
9 | GGCCGGCAUGGUCCCAGCCUCUUCGCUGGCGCCGGCUGGGCAACAUUCCGAGGGGACCGUCCCCUCGGUAAUGGAGAAUGGGACCCA | 0.0282
10 | GGCCGUCAUGGUCCCAGCCUCCUCGCUGGCGCCGGCUGGUCAACAUUCCGAGGGGACCGUCCCCUCGGUAAUGGCGAAUGGGACCCA | 0.633
11 | GGCCGGCAAGGUCCCAGCCUCCUCGCUGGCGCCGGCUAGGCAACAUUCCGAGGGGACCGUCCCCUCGGUAAUGGCGAAUGGGACCCA | 0.233
12 | GGCCGUCAUGGUCCCAGCCUCCUCGCUGGCGCCGGCUGUGCAACAUUCCGAGGGGACCGUCCCCUCGGUAAUGGCGAAUGGGACCCA | 0.106
13 | GGCCGGCUUGGUCCCAGCCUCCUCGCUGGCGCCGGCUGGGCAACAUUCAGAGGGGACCGUCCCCUCGGUAAUGGCGAAUGGGACCCA | 1.13
14 | GGCCGGCAUGGUCCCAGCCUCCUCGCUGGCGCCGGCUGGGCAACAUUCCGAAGGGACCGUCCGCUCGGUAAUGGCGAAUGGGACCCA | 0.415
15 | GGCCGGCAUGGUCCCAGCCUCCUCGAUGGCGCCGGCUGGGAAACAUUCCGAGGGGACCGUCCCCUCGGUAAUGGCGAAUGGGACCCA | 1.17
16 | GGCCGGCAUGGUCCCAGCCUCCUCGCUGGCGCCGGCUGGGCAAAAUUCCGAGGGGAACGUCCCCUCGGUAAUGGCGAAUGGGACCCA | 0.752

Row | Variant | self-cleavage
17 | GGCCGGCAUGGUCCCAGCCUCCUCGCUGGCGCCGCCUGGGCAACAUUCCGAGGGGACCGUCCUCUCGGUAAUGGCGAAUGGGACCCA | 0.492
18 | GGCCGGCAUGGUCACAGCCUCCUCGCUGGCGCCGGCUGGGCAACAUUCCGAGGGGACCGUCCCCUCGGUAAUGGCGGAUGGGACCCA | 0.755
19 | GGCCGGCAUAGUCCCAGCCUCCUCGCUCGCGCCGGCUGGGCAACAUUCCGAGGGGACCGUCCCCUCGGUAAUGGCGAAUGGGACCCA | 0.0683
20 | GGCCGGCCUGGUCCCAGCCUCCUCGCGGGCGCCGGCUGGGCAACAUUCCGAGGGGACCGUCCCCUCGGUAAUGGCGAAUGGGACCCA | 0.88
21 | GGCCGGCAUGGUCCCAGCCUCCUCGCUGGCGCCGGCUGGGCAACAUUCCGAGGGGACCGUCCCCUCGGUAAUAGCGAAAGGGACCCA | 0.231
22 | GGCCGGCAUGGUCCCAGCCUCCUCGCUGGCGCCGGCUGCGCAACAUUCCGAGGGGAACGUCCCCUCGGUAAUGGCGAAUGGGACCCA | 0.141
23 | GGCCGGCAUGGUCCCAGCCUCGUCGCUGGCGCCGGCUGGGCAACAUUCCGAGGGGACCGUCCCCUCGGUGAUGGCGAAUGGGACCCA | 0.185
24 | GGCCGGCAUGGUCCCAGCCUCCUCGCUGGCGGCGGCUGGGCAACAUUCCGAGUGGACCGUCCCCUCGGUAAUGGCGAAUGGGACCCA | 0.196
25 | GGCCGGCAUGGUCCCAGGCUCCCCGCUGGCGCCGGCUGGGCAACAUUCCGAGGGGACCGUCCCCUCGGUAAUGGCGAAUGGGACCCA | 0.227
26 | GGCCGGUAUGGUCCCAGCCUCCUCGCUGGCGCCGGCUGGGAAACAUUCCGAGGGGACCGUCCCCUCGGUAAUGGCGAAUGGGACCCA | 0.571
27 | GGCCGGCAUGUUCCCAGCCUCCUCGCUGGCGCCGGCUGGGCAACAUUCCGAAGGGACCGUCCCCUCGGUAAUGGCGAAUGGGACCCA | 0.375
28 | GGCGGGCAUGGGCCCAGCCUCCUCGCUGGCGCCGGCUGGGCAACAUUCCGAGGGGACCGUCCCCUCGGUAAUGGCGAAUGGGACCCA | 0.18
29 | GGCCGGCAUGGUCCCAGUCUCCUCGCUUGCGCCGGCUGGGCAACAUUCCGAGGGGACCGUCCCCUCGGUAAUGGCGAAUGGGACCCA | 0.0573
30 | GGCCGGCAUGGUCCCAGCCUCCUCGCUGGCGCCGGCAGGGCAACAUUCCGAGGGGACCGUCCCCUCGGUAAUGGCGAAUGGGACGCA | 0.0346
31 | GGCCGGCAUGGUUCCAGCCUCCUCGCUGGCCCCGGCUGGGCAACAUUCCGAGGGGACCGUCCCCUCGGUAAUGGCGAAUGGGACCCA | 0.198
32 | GGCCGGCAUGGUCCCAGCCUCCUCGCUGGCGCCGGCUGGGCAACAUUCCGAGGGGACCGUGCCCUCGGUAAUGGCGAAUGGGACCCA | 0.986
